# From patent publication US20120102593
# B1: histone deacetylase OsHDT1 (protein)
# chain: MEFWGLEVKPGQTVKCEPEDERFLHLSQAALGESKKGSDNAVMYVKTDDQKLVIGTLSADKFPQIQFDLVFDKEFELSHTSKTASVFFSGYKVSQPAEEDEMDFDSEEVEDEEEEEKIIPAPRANGKVEGKENEQKKQGKTDSSASKSKAAVNDDDDDDDSAEDDSQDEDLSPEDDDDDSSEDDSSEDDEDESDEEDTPKKPETGKRKVAEIVLKTPSSDKKAKIATPSGQKTGDKKGVHVATPHPAKQASKTPVNDKSKEKSPKSGGGSISCKSCSKTFNSEMALQSHSKAKHPAK
# Target: histone H4 (rice, extracted from leaves)
protein,measurement,value
B1,"Western blotting of histone extracted from transgenic and wild-type parent and hybrid OsHDT1 plants, using commercial antibodies against histone modifications",HDT1 was capable of deacetylating histone and as such is a histone deacetylase mainly acting at H4K16 site
